Experimental data reported in patent publication EP1674575A2.

Tests used:
[1] = target: HVEM:Fc (extracellular region of HVEM, 1 to K184, fused to the Fc region of human IgG1) (human) (UniProt Q92956); assay: SPR (BIAcore), receptor:Fc amine-coupled, LIGHT mutant as analyte 100-500 nM
[2] = target: HVEM:Fc (extracellular region of HVEM, 1 to K184, fused to the Fc region of human IgG1) (human) (UniProt Q92956); assay: SPR (BIAcore)
[3] = target: LTβR (lymphotoxin β receptor) expressed by cells (human) (UniProt P36941); assay: cell-based or functional assay
[4] = target: HVEM:Fc (extracellular region of HVEM, 1 to K184, fused to the Fc region of human IgG1) (human) (UniProt Q92956); assay: SPR (BIAcore), receptor:Fc amine-coupled, LIGHT as analyte 100-500 nM
human LTβR:Fc (human) = human LTβR:Fc (human) (UniProt P36941); assay: as above
[5] = target: mouse LTβR:Fc (amino acid residues 1 to Met221 of the extracellular domain of mouse LTβR) (mouse) (UniProt P50284); assay: ELISA, receptor:Fc capture, anti-FLAG detection
[6] = target: mouse HVEM:Fc (mouse HVEM Met1 to Ser205 fused to the Fc region of human IgG1) (mouse; human) (UniProt Q80WM9); assay: ELISA, receptor:Fc capture, anti-FLAG detection
mouse HVEM:Fc (mouse HVEM Met1 to Ser205 fused to the Fc region of human IgG1) (mouse; human), sequence (Q80WM9 39-205): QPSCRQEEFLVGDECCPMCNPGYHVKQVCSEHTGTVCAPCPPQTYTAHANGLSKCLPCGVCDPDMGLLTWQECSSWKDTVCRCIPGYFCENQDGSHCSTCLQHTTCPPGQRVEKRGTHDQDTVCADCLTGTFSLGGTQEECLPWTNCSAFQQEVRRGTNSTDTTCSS

human LTβR:Fc (human), sequence (P36941 31-227 limits assumed): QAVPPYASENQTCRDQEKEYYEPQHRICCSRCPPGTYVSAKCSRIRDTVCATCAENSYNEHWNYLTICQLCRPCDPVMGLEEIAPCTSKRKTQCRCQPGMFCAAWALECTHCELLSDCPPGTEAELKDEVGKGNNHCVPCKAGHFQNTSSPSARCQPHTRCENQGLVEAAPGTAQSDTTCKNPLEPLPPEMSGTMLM
HVEM:Fc (extracellular region of HVEM, 1 to K184, fused to the Fc region of human IgG1) (human), sequence (Q92956 39-184 limits assumed): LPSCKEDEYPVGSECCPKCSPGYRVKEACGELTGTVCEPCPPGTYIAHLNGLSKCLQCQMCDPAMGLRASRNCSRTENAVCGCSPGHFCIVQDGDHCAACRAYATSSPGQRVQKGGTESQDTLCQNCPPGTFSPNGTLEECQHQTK
mouse LTβR:Fc (amino acid residues 1 to Met221 of the extracellular domain of mouse LTβR) (mouse), sequence (P50284 31-221 limits assumed): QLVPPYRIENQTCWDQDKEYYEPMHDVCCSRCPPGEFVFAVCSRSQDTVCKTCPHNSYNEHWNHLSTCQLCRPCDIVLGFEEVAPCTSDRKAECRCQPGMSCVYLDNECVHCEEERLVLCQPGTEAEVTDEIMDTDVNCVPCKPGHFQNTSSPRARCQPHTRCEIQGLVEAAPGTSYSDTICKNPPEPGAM

Substance | Kd [1] | koff [1] | kon [1] | fold lower affinity than LIGHT t66 [2] | fold induction of ICAM expression by NHDF cells (flow cytometry, 20 nM) [3] | Kd [4] | koff [4] | kon [4] | Kd (human LTβR:Fc (human)) | koff (human LTβR:Fc (human)) | kon (human LTβR:Fc (human)) | fold lower affinity (against the human receptors) [5] | fold lower affinity (against the human receptors) [6] | concentration for complete inhibition of HCMV cytopathic effect [3] | dose for 50% cytotoxicity to HT29 cells (MTT, with IFNγ) [3] | fold induction of ICAM expression by NHDF cells (flow cytometry, 5 nM) [3] | growth inhibition of HT29 cells by LIGHT (0.25 nM), MTT after 72 h [3]
LIGHTt66-FLAG mutant G119E (from UniProt O43557 67-240) (ligand) | 114 nM | 0.002 s⁻¹ | 18000 M⁻¹ s⁻¹ | 30 fold | < 1.5 fold |  |  |  |  |  |  |  |  |  |  |  | 
LIGHTt66-FLAG (recombinant soluble homotrimeric human LIGHT lacking the N-terminal 66 amino acids, N-terminal FLAG epitope) (ligand) |  |  |  |  |  | 3.9 nM | 4.8e-05 s⁻¹ | 12000 M⁻¹ s⁻¹ | 4.5 nM | 0.00012 s⁻¹ | 27000 M⁻¹ s⁻¹ | 10 fold | 10 fold | 100 pM | 10 to 100 pM | 4 fold | 50%
